In publication doi:10.1101/702415 (bioRxiv, 2019):

Biological target: T1, Ups1 (S. cerevisiae, UniProt Q05776 1-175)
T1 sequence: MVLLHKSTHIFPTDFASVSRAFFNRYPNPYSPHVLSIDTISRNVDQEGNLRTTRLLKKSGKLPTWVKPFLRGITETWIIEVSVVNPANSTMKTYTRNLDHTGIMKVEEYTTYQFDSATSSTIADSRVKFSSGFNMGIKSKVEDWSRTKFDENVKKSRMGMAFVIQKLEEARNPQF
Assay: crystal structure

binding result: binds
B1: Mdm35 (natural protein)
chain: MGNIMSASFAPECTDLKTKYDSCFNEWYSEKFLKGKSVENECSKQWYAYTTCVNAALVKQGIKPALDEAREEAPFENGGKLKEVDK
